{"source": "patent US20250002610A1", "about": "(Genmab, published 2025)", "binders": {"B1": {"name": "BisG1-FAPα-FERL/DR4-FERR (bispecific antibody, human IgG1, kappa, lambda)", "heavy 1": "EVQLLESGGGLVQPGGSPRLSCEASGFTFSSYALSWVRQAPGKGLEWVSAISGSGGGRYYADSVKGRFTISRDNSKNTLFLQMNSLRAEDTAVYYCAKEGYSSSGTYWDHWGQGTLVTVSSASTKGPSVFPLAPSSKSTSGGTAALGCLVKDYFPEPVTVSWNSGALTSGVHTFPAVLQSSGLYSLSSVVTVPSSSLGTQTYICNVNHKPSNTKVDKRVEPKSCDKTHTCPPCPAPEFERGPSVFLFPPKPKDTLMISRTPEVTCVVVDVSHEDPEVKFNWYVDGVEVHNAKTKPREEQYNSTYRVVSVLTVLHQDWLNGKEYKCKVSNKALPAPIEKTISKAKGQPREPQVYTLPPSREEMTKNQVSLTCLVKGFYPSDIAVEWESNGQPENNYKTTPPVLDSDGSFLLYSKLTVDKSRWQQGNVFSCSVMHEALHNHYTQKSLSLSPG", "light 1": "AIQMTQSPSSVSASVGDRVTITCRASQGVSSWLAWYQQKPGRAPKLLIYVASTLQSGVPSRFSGSGSGTDFTLTINSLQPEDFATYYCQQANSFPPTFGQGTRLEMKRTVAAPSVFIFPPSDEQLKSGTASVVCLLNNFYPREAKVQWKVDNALQSGNSQESVTEQDSKDSTYSLSSTLTLSKADYEKHKVYACEVTHQGLSSPVTKSFNRGEC", "heavy 2": "QVQLQESGPGLVKPSGTLSLTCAVSGGSISSYSWWSWIRQPPGKGLEWIGELYHSGSTNYNPSLKSRVTISVDKSKNQFSLKLRSVTAADTAVYYCVRGVATIDYWGQGTLVTVSSASTKGPSVFPLAPSSKSTSGGTAALGCLVKDYFPEPVTVSWNSGALTSGVHTFPAVLQSSGLYSLSSVVTVPSSSLGTQTYICNVNHKPSNTKVDKRVEPKSCDKTHTCPPCPAPEFERGPSVFLFPPKPKDTLMISRTPEVTCVVVDVSHEDPEVKFNWYVDGVEVHNAKTKPREEQYNSTYRVVSVLTVLHQDWLNGKEYKCKVSNKALPAPIEKTISKAKGQPREPQVYTLPPSREEMTKNQVSLTCLVKGFYPSDIAVEWESNGQPENNYKTTPPVLDSDGSFFLYSRLTVDKSRWQQGNVFSCSVMHEALHNHYTQKSLSLSPG", "light 2": "QSALTQPPSASGSPGQSVTISCTGTSSDVGGYNFVSWYQQDPGKAPKLLIYEVTKRPSGVPDRFSGSKSGNTASLTVSGLQAEDEADYYCSSYAGSNNVMFGGGTKLTVLGQPKAAPSVTLFPPSSEELQANKATLVCLISDFYPGAVTVAWKADSSPVKAGVETTTPSKQSNNKYAASSYLSLTPEQWKSHRSYSCQVTHEGSTVEKTVAPTECS", "notes": "Human IgG1 bispecific made by controlled Fab-arm exchange of IgG1-FAPα-FERL and IgG1-DR4-FERR; monovalent for FAPα and for DR4; also called GEN1057"}}, "key": {"[1]": {"target": "T1, human DR4 (Death Receptor 4), cell surface expressed on human tumor cell lines (human, UniProt O00220 24-468)", "T1 construct": "also called TNFRSF10A; TRAIL-R1", "T1 sequence": "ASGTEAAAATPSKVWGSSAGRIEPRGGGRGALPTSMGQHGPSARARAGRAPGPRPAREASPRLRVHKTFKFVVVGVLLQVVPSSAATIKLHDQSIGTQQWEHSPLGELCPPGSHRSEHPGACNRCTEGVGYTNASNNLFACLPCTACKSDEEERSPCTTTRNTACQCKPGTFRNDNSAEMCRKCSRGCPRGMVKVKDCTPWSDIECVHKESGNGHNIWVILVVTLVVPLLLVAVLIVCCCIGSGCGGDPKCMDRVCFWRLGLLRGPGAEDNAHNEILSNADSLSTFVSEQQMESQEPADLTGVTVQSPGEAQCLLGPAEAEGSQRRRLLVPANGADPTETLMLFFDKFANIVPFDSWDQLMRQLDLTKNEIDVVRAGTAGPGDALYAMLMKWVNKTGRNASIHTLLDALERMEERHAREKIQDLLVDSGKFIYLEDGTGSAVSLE", "experiment": "flow cytometry, HCT-15 cells, n = 3"}, "[2]": {"target": "T1, human DR4 (Death Receptor 4), cell …", "experiment": "flow cytometry, DLD-1 cells, average ± SEM"}, "[3]": {"target": "T1, human DR4 (Death Receptor 4), cell …", "experiment": "flow cytometry, HCT-116 cells, average ± SEM"}, "[4]": {"target": "T1, human DR4 (Death Receptor 4), cell …", "experiment": "flow cytometry, MDA-MB-231 cells, average ± SEM"}, "[5]": {"target": "T2, cynomolgus monkey FAPα on Expi293F cells (cynomolgus monkey (Macaca fascicularis), UniProt Q12884 1-760 (human entry))", "T2 sequence": "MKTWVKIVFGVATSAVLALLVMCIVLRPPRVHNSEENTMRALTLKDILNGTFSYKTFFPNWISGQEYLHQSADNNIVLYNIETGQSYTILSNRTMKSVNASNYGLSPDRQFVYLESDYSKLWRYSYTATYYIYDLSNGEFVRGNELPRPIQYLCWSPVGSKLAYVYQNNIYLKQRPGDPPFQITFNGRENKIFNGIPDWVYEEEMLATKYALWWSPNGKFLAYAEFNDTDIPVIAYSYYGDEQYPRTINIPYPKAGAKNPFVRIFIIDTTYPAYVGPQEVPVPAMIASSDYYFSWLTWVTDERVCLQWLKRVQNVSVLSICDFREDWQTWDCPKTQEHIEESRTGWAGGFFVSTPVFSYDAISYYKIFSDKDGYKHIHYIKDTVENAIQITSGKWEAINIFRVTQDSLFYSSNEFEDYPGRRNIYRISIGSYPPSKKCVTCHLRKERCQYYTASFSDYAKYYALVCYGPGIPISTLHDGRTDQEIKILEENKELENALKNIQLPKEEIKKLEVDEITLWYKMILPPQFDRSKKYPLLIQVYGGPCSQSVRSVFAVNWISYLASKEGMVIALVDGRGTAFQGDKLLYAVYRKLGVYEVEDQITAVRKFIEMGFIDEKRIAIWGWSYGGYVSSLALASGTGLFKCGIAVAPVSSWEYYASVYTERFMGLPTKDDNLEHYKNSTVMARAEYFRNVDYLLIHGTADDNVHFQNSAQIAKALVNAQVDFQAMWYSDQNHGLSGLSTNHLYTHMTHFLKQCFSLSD", "experiment": "flow cytometry, Expi293F cells expressing cynomolgus monkey FAPα, n = 1", "description": "Binding of BisG1-FAPα-FERL/DR4-FERR, BisG1-FAPα-FEAL/b12-FEAR and IgG1-FAPα-FERL to FAPα of species commonly used for nonclinical toxicology studies was assessed by flow cytometry using Expi293F cells transiently expressing FAPα from different animal species. IgG1-b12 was included as negative control.\nExpi293F cells expressing recombinant FAPα from various species (human, cynomolgus monkey, dog, pig, rat or mouse) were seeded (20,000 cells/well) in 96-Well round bottom plates (Greiner Bio-one, Cat #650101). Antibody dilutions were prepared using FACS buffer, consisting of PBS (Capricorn Scientific, Cat #PBS-10XA, diluted to 1×PBS in distilled water)+1% BSA (Roche, Cat #10735086001)+0.02% Sodium Azide (Bio-World, Cat #41920044-3). Plates were centrifuged, supernatant was removed, and cells were resuspended in 100 μL of antibody dilutions (concentration range 30-0.00017 μg/mL with three-fold serial dilutions using FACS buffer) of BisG1-FAPα-FERL/DR4-FERR, BisG1-FAPα-FEAL/b12-FEAR, IgG1-FAPα-FERL and IgG1-b12 and incubated for 30 min at 4° C. […] After 30 min incubation at 4° C., cells were washed with FACS buffer and resuspended in FACS buffer supplemented with TO-PRO-3 Iodide viability marker (Invitrogen, Cat #T3605, diluted 1:4,000). Antibody binding to viable cells (gMFI of PE on TO-PRO-3 negative cells) was analyzed by flow cytometry on a FACS Celesta and FACS_Diva software (first two experiments) or iQue® 3 and FlowJo software (last experiment). gMFI was determined and visualized using GraphPad Prism. Binding curves were analyzed using nonlinear regression analysis. The concentration (pg/mL) at which 50% of the maximal effect was observed (EC₅₀) was derived from the fitted curves."}}, "data": [{"binder": "B1", "values": [{"measurement": "EC50", "setting": "[1]", "result": 0.68, "unit": "µg/mL"}, {"measurement": "EC50", "setting": "[2]", "result": 0.72, "unit": "µg/mL"}, {"measurement": "EC50", "setting": "[3]", "result": 0.52, "unit": "µg/mL"}, {"measurement": "EC50", "setting": "[4]", "result": 0.72, "unit": "µg/mL"}, {"measurement": "EC50", "setting": "[5]", "result": 0.24, "unit": "µg/mL"}]}]}
